From patent US20230139700A1 (BIO THERA SOLUTIONS, published 2023)

What was measured:
[1] = biological target: T1, human OX40 on cells (human, UniProt P43489 29-277); assay: flow cytometry (MFI) on Jurkat cells overexpressing OX40, antibody titration; the unit nM comes from the legend paragraph 95
T1 construct: whole, on cells; the cell is named under assay; also called hOX40; Jurkat-hOX40 cells
T1 sequence (looked up): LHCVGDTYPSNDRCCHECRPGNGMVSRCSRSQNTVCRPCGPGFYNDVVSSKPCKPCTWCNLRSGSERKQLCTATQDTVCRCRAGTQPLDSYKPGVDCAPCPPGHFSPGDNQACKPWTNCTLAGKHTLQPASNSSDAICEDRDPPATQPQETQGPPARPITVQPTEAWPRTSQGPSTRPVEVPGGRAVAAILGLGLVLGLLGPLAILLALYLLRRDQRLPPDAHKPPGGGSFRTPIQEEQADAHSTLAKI
Text: (§1) Table 10 illustrates the CDRs of eight full antibodies containing these amino acid mutations, and the rest of the sequences are the same as those of antibody-F23-32K. […] The sequences of the anti-OX40 antibody (antibody M) are shown in Table 12; wherein, the expression cells used for the antibodies above (including antibody M) are CHO-S cells, and the method for preparing the antibody M-KF is as follows: the antibody M was identical to the antibody M-KF in terms of amino acid sequence and was expressed by the CHO cell line in which the fut8 gene was knocked out (the content of fucose in antibody M-KF was about 0%).

[2] = biological target: T2, human OX40 (coated on the plate, Example 8) (human, UniProt P43489 29-214); assay: ELISA, OX40 coated at 2 µg/mL, antibody 2-fold dilutions; human OX40, not cynomolgus monkey OX40
T2 sequence (looked up): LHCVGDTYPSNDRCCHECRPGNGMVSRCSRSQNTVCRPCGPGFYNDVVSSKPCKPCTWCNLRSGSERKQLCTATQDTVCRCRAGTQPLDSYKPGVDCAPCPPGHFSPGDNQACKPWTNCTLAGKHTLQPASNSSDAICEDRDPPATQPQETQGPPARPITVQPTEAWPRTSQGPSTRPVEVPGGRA
Protocol: (§2) The binding capacities of the antibody M-KF for human and cynomolgus monkey OX40 were determined by ELISA. The test method is as follows: human or cynomolgus monkey OX40 was coated on a plate and incubated overnight at 4° C. at a concentration of 2 μg/mL, and then incubated with antibody M-KF at different concentrations for detection. The antibody M-KF was 2-fold diluted in gradient from an initial concentration of 1 μg/mL or 2 μg/mL.

[3] = biological target: T1, human OX40 on cells; assay: cell-based or functional assay
[4] = biological target: T1, human OX40 on cells; assay: flow cytometry (MFI) on Jurkat cells overexpressing OX40, antibody titration
Text: as §1

[5] = biological target: T3, cynomolgus monkey OX40 (cynomolgus monkey); assay: ELISA, OX40 coated at 2 µg/mL, antibody 2-fold dilutions
T3 chain: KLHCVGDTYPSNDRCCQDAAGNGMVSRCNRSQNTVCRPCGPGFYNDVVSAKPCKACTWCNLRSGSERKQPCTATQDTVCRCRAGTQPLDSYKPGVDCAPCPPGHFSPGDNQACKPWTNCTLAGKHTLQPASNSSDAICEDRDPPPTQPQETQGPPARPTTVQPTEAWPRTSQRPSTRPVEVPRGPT
Protocol: as §2

[6] = biological target: T1, human OX40 on cells; assay: flow cytometry on Jurkat-hOX40 cells, 3-fold dilutions from 50 nM, MFI
Protocol: Antibody-F23-4k and antibody-F23-32k, as well as two control antibodies 11D4 and OX40mAb24 at different concentrations were used to incubate Jurkat-hOX40 cells.

[7] = biological target: T4, hOX40-FC (human, UniProt P43489 29-216); assay: BLI (ForteBio), biotinylated antibody on SA sensor, OX40-Fc 50 nM bivalent, 1:1 model
T4 construct: range 1-216; Made in HEK293; The stated range 1-216 starts at residue 1, so it holds the signal peptide of the entry; also called human OX40 extracellular region fused to human IgG1-Fc; not shown: human IgG1-Fc, UniProt P01857, residues 104 to 330
T4 sequence (looked up): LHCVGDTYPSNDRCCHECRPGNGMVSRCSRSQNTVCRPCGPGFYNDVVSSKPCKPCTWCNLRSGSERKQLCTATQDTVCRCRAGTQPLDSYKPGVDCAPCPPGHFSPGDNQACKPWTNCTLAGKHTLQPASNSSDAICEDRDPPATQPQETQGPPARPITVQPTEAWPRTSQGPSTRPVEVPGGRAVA
Protocol: The ForteBio affinity assay was conducted according to the existing conventional method (Estep, P et al., MAbs, 2013, 5(2): 270-8). The brief process is as follows: the sensor was equilibrated offline in an assay buffer (such as PBS) for 20 min and then subjected to online test for 60 s to establish a signal baseline. The purified antibodies obtained as described above were each loaded online onto a corresponding sensor (ForteBio), and finally the ForteBio affinity assay was conducted. The biotinylated candidate antibodies were adsorbed with the SA sensor, and binding and dissociation of hOX40-FC were each detected for about 5 min. The results are shown in Table 4, and N.D indicates not detected in Table 4. Finally, kinetic analysis was performed for all by using a 1:1 binding model.

[8] = biological target: T1, human OX40 on cells; assay: flow cytometry on Jurkat-hOX40 cells, 100 nM antibody, secondary antibody; parental Jurkat as control
Protocol: Jurkat cells overexpressing human OX40 (Jurkat-hOX40 cells) were generated by transfecting pCMV vectors with human OX40 cDNA. Jurkat-hOX40 cells (0.5×10⁶ cells) were incubated with 100 nM experimental antibody in PBS containing 0.1% BSA on ice for 40 min. The cells were then washed twice and incubated with the secondary antibody in PBS containing 0.1% BSA on ice for 25 min. The cells were washed twice and analyzed by flow cytometry on Accuri C6 system (BD Biosciences).

[9] = biological target: T5, hOX40-his (human, UniProt P43489 29-216); assay: BIACORE, antibody on the probe, 20 nM OX40-his
T5 construct: range 1-216; Made in HEK293; The stated range starts at residue 1 (holds the signal peptide of the entry); no cleavage site stated; not shown: his tag
T5 sequence (looked up): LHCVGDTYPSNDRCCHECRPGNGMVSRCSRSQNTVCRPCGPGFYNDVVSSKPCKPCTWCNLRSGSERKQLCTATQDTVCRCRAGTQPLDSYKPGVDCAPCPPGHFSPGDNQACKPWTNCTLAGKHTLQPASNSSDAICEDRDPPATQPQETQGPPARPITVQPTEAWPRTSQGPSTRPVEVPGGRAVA
Text: as §1

[10] = biological target: T6, rhesus monkey OX40-his (rhesus monkey); assay: BLI (Fortebio), protein A sensor - antibody - OX40-his (100 nM)
T6 construct: also called Rh-OX40; Rh-OX40-his

[11] = biological target: T7, hCD27-FC (human, UniProt P26842 20-191, limits assumed); assay: ELISA, 10 ng antigen coated, HRP secondary antibody
T7 construct: not shown: Fc part
T7 sequence (looked up): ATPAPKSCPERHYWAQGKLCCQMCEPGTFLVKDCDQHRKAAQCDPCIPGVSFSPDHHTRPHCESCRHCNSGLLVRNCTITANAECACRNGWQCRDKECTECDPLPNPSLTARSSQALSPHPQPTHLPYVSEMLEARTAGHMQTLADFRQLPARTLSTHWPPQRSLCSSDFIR

[12] = biological target: T8, mouse OX40-his (mouse, UniProt P47741 20-211); assay: as above
T8 construct: also called mOX40-his; not shown: his tag
T8 sequence (looked up): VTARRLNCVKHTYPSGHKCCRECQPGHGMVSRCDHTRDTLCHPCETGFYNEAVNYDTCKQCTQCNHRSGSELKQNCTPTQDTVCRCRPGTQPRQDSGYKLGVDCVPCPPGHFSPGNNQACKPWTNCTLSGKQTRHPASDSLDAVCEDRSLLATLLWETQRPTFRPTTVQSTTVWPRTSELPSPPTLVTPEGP

B1: Antibody M-KF (antibody, human IgG1, kappa, V domains shown)
VH: QVQLVESGGGVVQPGESLRLSCAASGFTFSSYGMHWVRQAPGKGLEWVAVIWEDGSNQYYADSVKGRFTISRDNSKNTLYLQMNSLRAEDTAVYYCAKDNQDTSPDVGIDYWGQGTLVTVSS
VL: DIQMTQSPSSLSASVGDRVTITCRASQNISPFLNWYQQKPGKAPKLLIYAAVGLQSGVPSRFSGSGSGTDFTLTISSLQPEDFATYYCQQYTDYPLTFGGGTKVEIKR
modifications: fucose content about 0% (expressed in a CHO cell line with the fut8 gene knocked out)
Question: With B1 as the binder, how does the EC50 [1] read?
Answer: The EC50 was 1.34 nM.

Question: What about the EC50 [2] of the same binder?
Answer: Its EC50 is ~0.034 ng/mL.

Question: And the “ADCC killing, fold against antibody M” value [3]?
Answer: Its value is > 2 fold.

Question: And the “EC50 of ADCC killing, PBMC effector cells against Jurkat-hOX40 target cells (25:1)” value [3]?
Answer: Its value is ~1.89 ng/mL.

Question: And the “NFκB reporter in Jurkat-hOX40-NFκB-2 cells with Raji cells, activation peak against 11D4” value [3]?
Answer: Its value is ~2.5 fold.

Question: What about the “EC50 (read off the curve)” value [4] of the same binder?
Answer: Its value is ~1 nM.

Question: And the EC50 [5]?
Answer: Its EC50 is ~0.0352 ng/mL.

B2: Antibody-F23-4k (antibody, human IgG1, kappa, V domains shown)
VH: QVQLEESGGGVVQPGESLRLSCAASGFTFSSYGMHWVRQAPGKGLEWVAVISYDGSNQYYADSVKGRFTISRDNSKNTLYLQMNSLRAEDTAVYYCAKDNQDSSPDVGIDYWGQGTLVTVSS
VL: DIVMTQSPSSLSASVGDRVTITCRASQDILGYVNWYQQKPGKAPILLIYATSGLQGGVPSRFSGSGSGTDFTLTISSLQPEDFATYYCQQYNSYPLTFGGGTKVDIKR
notes: also called antibody No. 4
Question: Which results are given for B2?
Answer: EC50 [6]: 1.5 nM; Kd [7]: 0.6 nM

B3: Antibody-F10 (antibody, human IgG1, kappa, V domains shown)
VH: QVQLQESGGGLEKPGRSLRLSCAASGFTFSSYAMHWVRQAPGKGLEWVAVISYDGSNKYYADSVKGRFTISRDNSKNTLYLQMNSLRAEDTAVYYCARELGVYSGYDTPFDYWGQGTLVTVSS
VL: DIQMTQSPSSLSASVGDRITITCRASRDIRDDLAWYQQKPGGAPKLLIYAASTLQSGVPSRFSGSGSGTDFTLTISSLQPEDFATYYCLQDSDYPLTFGGGTKLEIKR
notes: also called antibody No. 1
Question: Does B3 bind [8]?
Answer: Result: binds

B4: 11D4 (antibody, V domains shown)
VH: EVQLVESGGGLVQPGGSLRLSCAASGFTFSSYSMNWVRQAPGKGLEWVSYISSSSSTIDYADSVKGRFTISRDNAKNSLYLQMNSLRDEDTAVYYCARESGWYLFDYWGQGTLVTVSS
VL: DIQMTQSPSSLSASVGDRVTITCRASQGISSWLAWYQQKPEKAPKSLIYAASSLQSGVPSRFSGSGSGTDFTLTISSLQPEDFATYYCQQYNSYPPTFGGGTKVEIKR
Question: For B4, which EC50 [1] is on record?
Answer: Its EC50 is 1.17 nM.

Question: What about the EC50 [6] of the same binder?
Answer: The EC50 was 1.5 nM.

Question: What about the “EC50 (read off the curve)” value [4] of the same binder?
Answer: Its value is ~1 nM.

Question: And the Kd [9]?
Answer: The Kd was 1.31 nM.

Question: And the koff [9]?
Answer: Its koff is 0.000461 s⁻¹.

Question: And the kon [9]?
Answer: The kon was 353000 M⁻¹ s⁻¹.

B5: OX40mAb24 (antibody, V domains shown)
VH: QVQLQESGPGLVKPSQTLSLTCAVYGGSFSSGYWNWIRKHPGKGLEYIGYISYNGITYHNPSLKSRITINRDTSKNQYSLQLNSVTPEDTAVYYCARYKYDYDGGHAMDYWGQGTLVTVSS
VL: DIQMTQSPSSLSASVGDRVTITCRASQDISNYLNWYQQKPGKAPKLLIYYTSKLHSGVPSRFSGSGSGTDYTLTISSLQPEDFATYYCQQGSALPWTFGQGTKVEIKR
Question: Which Kd [10] does the source give for B5 here?
Answer: The Kd was 3 nM.

Question: What about the EC50 [6] of the same binder?
Answer: Its EC50 is 5 nM.

Question: And the “ELISA (OD value)” value [11]?
Answer: Its value is 0.2 OD.

Question: What about the “ELISA (OD value)” value [12] of the same binder?
Answer: Its value is 0.17 OD.
